Experimental data as given in patent publication US20240141043A1.

Columns and labels:
murine CD19 (mouse) [1] = target: murine CD19 (mouse) (UniProt P25918); assay: flow cytometry of mouse peripheral blood, 4hrs after i.v. injection of 50 ug anti-murine CD19-FITC, CD19-FITC in master mix [CONT'D) D]
murine CD19 (mouse) [2] = target: murine CD19 (mouse) (UniProt P25918); assay: flow cytometry of mouse peripheral blood, Day 1 after i.v. injection of 50 ug anti-murine CD19-FITC, CD19-FITC in master mix [CONT'D) D]
murine CD19 (mouse) [3] = target: murine CD19 (mouse) (UniProt P25918); assay: flow cytometry of mouse peripheral blood, Day 5 after i.v. injection of 50 ug anti-murine CD19-FITC, CD19-FITC in master mix [CONT'D) D]
murine CD19 (mouse) [4] = target: murine CD19 (mouse) (UniProt P25918); assay: flow cytometry of mouse peripheral blood, Day 8 after i.v. injection of 50 ug anti-murine CD19-FITC, CD19-FITC in master mix [CONT'D) D]
murine CD19 (mouse) [5] = target: murine CD19 (mouse) (UniProt P25918); assay: flow cytometry of mouse peripheral blood, 4hrs after i.v. injection of 50 ug anti-murine CD19-FITC, no CD19-FITC in master mix (injected antibody only) [CONT'D) D]
murine CD19 (mouse) [6] = target: murine CD19 (mouse) (UniProt P25918); assay: flow cytometry of mouse peripheral blood, Day 1 after i.v. injection of 50 ug anti-murine CD19-FITC, no CD19-FITC in master mix (injected antibody only) [CONT'D) D]
murine CD19 (mouse) [7] = target: murine CD19 (mouse) (UniProt P25918); assay: flow cytometry of mouse peripheral blood, Day 5 after i.v. injection of 50 ug anti-murine CD19-FITC, no CD19-FITC in master mix (injected antibody only) [CONT'D) D]
murine CD19 (mouse) [8] = target: murine CD19 (mouse) (UniProt P25918); assay: flow cytometry of mouse peripheral blood, Day 8 after i.v. injection of 50 ug anti-murine CD19-FITC, no CD19-FITC in master mix (injected antibody only) [CONT'D) D]

murine CD19 (mouse), sequence (P25918 19-547): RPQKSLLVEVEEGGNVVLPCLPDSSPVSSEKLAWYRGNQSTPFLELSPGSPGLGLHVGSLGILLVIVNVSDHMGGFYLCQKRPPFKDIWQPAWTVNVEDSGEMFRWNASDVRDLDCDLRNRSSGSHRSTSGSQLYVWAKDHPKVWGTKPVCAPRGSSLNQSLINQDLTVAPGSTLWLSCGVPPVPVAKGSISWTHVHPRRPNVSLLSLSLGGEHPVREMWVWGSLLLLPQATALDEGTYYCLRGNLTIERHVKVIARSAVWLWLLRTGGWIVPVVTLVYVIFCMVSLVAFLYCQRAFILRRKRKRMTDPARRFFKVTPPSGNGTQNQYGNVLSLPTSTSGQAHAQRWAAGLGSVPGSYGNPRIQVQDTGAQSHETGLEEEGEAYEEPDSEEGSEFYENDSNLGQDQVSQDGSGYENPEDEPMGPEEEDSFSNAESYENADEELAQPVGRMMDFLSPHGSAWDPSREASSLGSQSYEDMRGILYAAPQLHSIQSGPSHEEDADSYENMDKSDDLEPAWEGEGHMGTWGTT

- CD19+CD20+ gate (share of cells in the gate) (murine CD19 (mouse) [1]): 53
- CD19+CD20+ gate (share of cells in the gate) (murine CD19 (mouse) [2]): 52.3
- CD19+CD20+ gate (share of cells in the gate) (murine CD19 (mouse) [3]): 43.6
- CD19+CD20+ gate (share of cells in the gate) (murine CD19 (mouse) [4]): 36.4
- CD19+CD20+ gate (share of cells in the gate) (murine CD19 (mouse) [5]): 52.7
- CD19+CD20+ gate (share of cells in the gate) (murine CD19 (mouse) [6]): 49.1
- CD19+CD20+ gate (share of cells in the gate) (murine CD19 (mouse) [7]): 44
- CD19+CD20+ gate (share of cells in the gate) (murine CD19 (mouse) [8]): 38.3
Substance: anti-murine CD19-FITC antibody (Biolegend; clone 1D3)
